Data reported in PMC6076860 (Analytical biochemistry, 2018).

Biological target: the molecule itself
Assay: SEC

B1: PCD αβ dimer (protomer of the protocatechuate 3,4-dioxygenase holoenzyme complex) from Pseudomonas putida (complex)
chain 1: MPIELLPETPSQTAGPYVHIGLALEAAGNPTRDQEIWNRLAKPDAPGEHILLLGQVYDGNGHLVRDSFLEVWQADANGEYQDAYNLENAFNSFGRTATTFDAGEWTLHTVKPGVVNNAAGVPMAPHINISLFARGINIHLHTRLYFDDEAQANAKCPVLNLIEQPQRRETLIAKRCEVDGKTAYRFDIRIQGEGETVFFDF
chain 2: MPAQDNSRFVIRDRNWHPKALTPDYKTSIARSPRQALVSIPQSISETTGPNFSHLGFGAHDHDLLLNFNNGGLPIGERIIVAGRVVDQYGKPVPNTLVEMWQANAGGRYRHKNDRYLAPLDPNFGGVGRCLTDSDGYYSFRTIKPGPYPWRNGPNDWRPAHIHFGISGPSIATKLITQLYFEGDPLIPMCPIVKSIANPEAVQQLIAKLDMNNANPMDCLAYRFDIVLRGQRKTHFENC
B1: binds.
